Experimental findings from article PMC4151078, “Visualization of the physical and functional interaction between hMYH and hRad9 by Dronpa bimolecular fluorescence complementation” (BMC Molecular Biology, 2014) are described below.

For experiment [1], the target named is T1, GST-hMYH (full-length, amino acids 1-547) (human, UniProt Q9UIF7-1 1-546).
T1 construct: human MutY glycosylase homolog (hMYH), NM_012222; printed as full-length, amino acids 1-547; cloned into pGEX-4T1; also called GST-tagged hMYH wild type; source: bacterially expressed and purified
T1 sequence (looked up): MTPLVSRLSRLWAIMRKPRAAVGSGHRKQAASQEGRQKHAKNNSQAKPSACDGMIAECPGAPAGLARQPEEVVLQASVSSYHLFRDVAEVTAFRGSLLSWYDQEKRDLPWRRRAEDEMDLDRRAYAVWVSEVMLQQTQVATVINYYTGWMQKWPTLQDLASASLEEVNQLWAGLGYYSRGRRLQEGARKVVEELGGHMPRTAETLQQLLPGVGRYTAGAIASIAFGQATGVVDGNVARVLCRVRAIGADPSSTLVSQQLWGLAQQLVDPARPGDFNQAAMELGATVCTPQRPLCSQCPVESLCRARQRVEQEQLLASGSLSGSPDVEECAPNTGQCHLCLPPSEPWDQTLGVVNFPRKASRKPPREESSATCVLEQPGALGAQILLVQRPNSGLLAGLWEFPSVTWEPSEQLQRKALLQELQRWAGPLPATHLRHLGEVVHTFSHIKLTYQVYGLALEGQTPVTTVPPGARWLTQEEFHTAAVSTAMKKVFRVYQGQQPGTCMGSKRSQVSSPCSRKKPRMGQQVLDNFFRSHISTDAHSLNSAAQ
The experiment in a line: pull-down; GST or GST-hMYH fusion on glutathione-Sepharose 4B beads, purified His-hRad9 added; 50 mM Tris-HCl pH 7.5, 150 mM NaCl, 1 mM EDTA, 0.3 mM DTT, 0.1% NP-40; 3 h at 4°C; blot with anti-GST and anti-His. The following applies: both partners purified.

In experiment [2] the target is T2, GST-hMYH-ΔC (amino acids 1-487) (human, UniProt Q9UIF7-1 1-487).
T2 construct: cloned into pGEX-4T1; source: bacterially expressed and purified
T2 sequence (looked up): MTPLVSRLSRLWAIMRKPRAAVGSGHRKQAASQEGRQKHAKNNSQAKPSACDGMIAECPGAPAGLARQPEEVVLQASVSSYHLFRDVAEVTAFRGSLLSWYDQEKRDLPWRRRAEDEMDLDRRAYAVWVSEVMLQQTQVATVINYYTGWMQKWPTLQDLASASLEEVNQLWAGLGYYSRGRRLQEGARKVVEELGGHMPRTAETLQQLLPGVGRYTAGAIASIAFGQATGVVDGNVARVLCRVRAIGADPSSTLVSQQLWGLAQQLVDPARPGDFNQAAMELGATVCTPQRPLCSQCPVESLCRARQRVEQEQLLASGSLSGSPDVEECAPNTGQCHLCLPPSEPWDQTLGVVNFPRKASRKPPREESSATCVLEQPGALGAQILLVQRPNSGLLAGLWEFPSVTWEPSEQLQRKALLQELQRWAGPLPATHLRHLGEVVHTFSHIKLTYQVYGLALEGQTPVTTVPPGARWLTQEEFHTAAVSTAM
The experiment is described as above. The conditions noted are these: both partners purified.

B1: His-hRad9 (natural protein, human, UniProt Q99638 1-391, looked up)
chain: MKCLVTGGNVKVLGKAVHSLSRIGDELYLEPLEDGLSLRTVNSSRSAYACFLFAPLFFQQYQAATPGQDLLRCKILMKSFLSVFRSLAMLEKTVEKCCISLNGRSSRLVVQLHCKFGVRKTHNLSFQDCESLQAVFDPASCPHMLRAPARVLGEAVLPFSPALAEVTLGIGRGRRVILRSYHEEEADSTAKAMVTEMCLGEEDFQQLQAQEGVAITFCLKEFRGLLSFAESANLNLSIHFDAPGRPAIFTIKDSLLDGHFVLATLSDTDSHSQDLGSPERHQPVPQLQAHSTPHPDDFANDDIDSYMIAMETTIGNEGSRVLPSISLSPGPQPPKSPGPHSEEEDEAEPSTVPGTPPPKKFRSLFFGSILAPVRSPQGPSPVLAEDSEGEG
notes: human Rad9 (hRad9), NM_004584; also called purified His-hRad9; His-purified hRad9 protein; source: bacterially expressed and purified
In the case of B1, the binding result in experiment [1] and in experiment [2] was “binds” throughout.
